Reference: the supplement of paper PMC12764529
± gives the half width of the 95% confidence interval.

What was measured:
[1] = folding stability dG unfold from trypsin proteolysis; higher = more stable
How it was run: (§1)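 Designed mini-proteins (under 80 residues, no cysteine) in a PA-tagged cDNA display construct were digested with trypsin and chymotrypsin. Each protease was used at 11 concentrations (threefold dilutions) plus a no-protease condition, followed by sequencing. K50 was inferred by Bayesian fitting of sequencing counts, and unfolding free energy was derived against a sequence-predicted unfolded-state K50 and a shared folded-state K50, per protease or combined. Only designs with AlphaFold2 dimer inter-PAE above 15 were kept.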

[2] = folding stability dG unfold from chymotrypsin proteolysis; higher = more stable
How it was run: as §1

[3] = folding stability dG unfold (combined trypsin and chymotrypsin); higher = more stable
How it was run: as §1

Sequence | folding stability dG unfold [1] [kcal/mol] | folding stability dG unfold [2] [kcal/mol] | folding stability dG unfold [3] [kcal/mol]
SAGMNPNNPNVKTTTVTYTFPLPATESVEEAVERLKAEAEAAGKPIKTVEVTVERTPEDTVVIKATFVSSAG [r5_65_JUSTAS] | 1.34 ± 0.072 | 1.71 ± 0.057 | 1.59 ± 0.093
SAGMPEPRVFEIPNEGSESDLRDAVRELAEELRPSGREVRLVVEVGGRPREYRLEEVDRFPPDFRVVLGSAG [r5_626_TrMRF] | -0.362 ± 0.25 | 0.324 ± 0.16 | 0.125 ± 0.12
SAGMPGKVVTVTVPVPPELTRLTVTATAPDGSSSTFTLPPGVATTVTFTSPSSSDLSVTVTFPDGSTTGSAG [r5_664_JUSTAS] | 0.849 ± 0.017 | 1.16 ± 0.052 | 1.07 ± 0.05
SAGMPIKAKVLIFDPVNPVPKEFEFDVEDLDELVEKIREELGVEVVVDPESGVVVVDTPDGSLIVIEFDSAG [r5_937_TrMRF] | 3.08 ± 0.093 | 2.93 ± 0.077 | 3.01 ± 0.043
SAGMPKPIRLLVRNPETGKYFLVEVEEPEELVTVTLLDPETGEVRAVFEGPLEEIIAALEAEGFEVEPVSAG [r5_291_TrMRF] | 4.47 ± 0.16 | 4.438 ± 0.042 | 4.442 ± 0.036
SAGMPKPLVLPVVLPDDGATVEVVFDPVEKRIEIRVFKPGHRERAREFAEGIAALFEELGYEVEITDDSAGG [r19_354_TrMRF] | 2.3 ± 0.084 | 1.27 ± 0.091 | 1.91 ± 0.12
SAGMPLASVEVEIEKLPDGTYRVRARITIWDPVTGKPLREVEFEGPFESPEAAEAEALKKALEVLEADSAGG [r19_255_TrMRF] | 4.25 ± 0.18 | 4 ± 0.11 | 4.06 ± 0.13
SAGMPPVKVEIEVYPVRVEGELLYIAKIVRPDGSVLVIAFKPEELIEAIKKEFPDIEEIKFSPFETPPESAG [r5_25_TrMRF] | 3.3 ± 0.095 | 3.579 ± 0.022 | 3.48 ± 0.054
SAGMPYIKVKITVIHPDNKEKEAEFVFDLKDGKIDLKPEVIEKALEELGIPKDYEIKIEIVEIKEPDESAGG [r19_287_TrMRF] | 2.5 ± 0.13 | 2.82 ± 0.16 | 2.81 ± 0.16
SAGMQLLPSATVTLTNPKTGETTTVSVQALRDELAARRGTTDPAAITEADIEAWAKEQGYDPITFTLPSAGG [r19_67_JUSTAS] | 2.96 ± 0.069 | 2.55 ± 0.027 | 2.78 ± 0.076
SAGMSLEEIAKEFAKKKGLKKVEIKYYPEKKTYEIKVYLEEPGEPKTATIKVEDVTPETFKKAIEEILESAG [r5_896_TrMRF] | 3.61 ± 0.32 | 4.75 ± 0.16 | 4.83 ± 0.41
SAGMSLEELAKELAKKLNIEKVEIKYDKETNKVTIKIYFKKNKKKITITIKKENMTPEEIKKLLEEILKSAG [r5_896_TrROS_Hall] | 2.9 ± 0.12 | 4.51 ± 0.098 | 4.41 ± 0.19
SAGMSPELLEALRKAAEEEGLEVVEIKVEKLPNGEVKITIRLKNGKEIKEITLPKDVKTPEEALKLIRESAG [r5_352_TrROS_Hall] | 4.82 ± 0.34 | 4.04 ± 0.081 | 4.31 ± 0.1
SAGMSVTLEFTDPDKSAEELKEEIMKKVGIPENYPVKVTETPSPADGYTLTITVDDPKVAEAIKKALSSAGG [r19_215_JUSTAS] | 1.26 ± 0.037 | 1.742 ± 0.016 | 1.57 ± 0.066
SAGMTAEELAAEALAKLPPGAKEVTVEIEVNGELVTVTITVEAAPPPPPPEETITTVDEDTGEVREETLSAG [r5_236_TrROS_Hall] | 1.44 ± 0.058 | 0.119 ± 0.034 | 0.854 ± 0.068
SAGMTEEELKKLKEKFPNLKIEPVKTITIKVEPNASVEEIAKKLKELLNIDKVEIEVNEETGEITIRIYSAG [r5_694_TrROS_Hall] | 2.98 ± 0.15 | 4.07 ± 0.16 | 3.69 ± 0.23
SAGMTFEAEVKEKTIYIPEINNIIKIKIVNLKPPEGPIIPIIKIEFYVSENTTPEDIIKLLKELNIPVESAG [r5_486_TrMRF] | 2.09 ± 0.16 | 2.11 ± 0.024 | 2.07 ± 0.099
SAGMTFPPGMTIEELKELLKKLGIKEVTVTYDKETNTVTVTVTVEGKTITITVTLPAPPVVVKEEGEEKSAG [r5_899_TrROS_Hall] | 1.77 ± 0.059 | 3 ± 0.1 | 2.53 ± 0.17
SAGMTIRIVVPKKDMSVEELAKKLKEELGLPEDAKVTIKVEKLPNGELVLTITVPSEEERKKIEELLKSAGG [r19_215_TrROS_Hall] | 2.9 ± 0.13 | 2.91 ± 0.15 | 2.98 ± 0.25
SAGMTIVIEIPSSTSYEDAVKAIKKIAKEIKEKGKKFKIVVLTKDPKIAEAIKKALEELGIPLEVKIGSAGG [r19_268_TrMRF] | 2.77 ± 0.07 | 2.91 ± 0.043 | 2.93 ± 0.059
SAGMTLTIEVLIKVETPEEARKAAEELARRLAEEGYTVTVEVVKVEEVTLPDGSKYYRVTVKVTVEPAPSAG [r5_158_TrROS_Hall] | 5.08 ± 0.38 | 5.62 ± 0.15 | 5.78 ± 0.31

Sequence | folding stability dG unfold [1] [kcal/mol] | folding stability dG unfold [2] [kcal/mol] | folding stability dG unfold [3] [kcal/mol]
SAGMTPDTTLPDLVVTIYSPDGTSTTYTFPNVTRVTEVDPETGKLTLYSPEGRTITLTLSPDEKVEIVGSAG [r5_762_JUSTAS] | 2.45 ± 0.035 | 3.024 ± 0.027 | 2.84 ± 0.037
SAGMTPEEVAEELREKLGLKEVTIERDPAADTLTITVTLPSPGETKTAVVPASALTPEAIRELLLEVLSSAG [r5_896_JUSTAS] | 2.77 ± 0.071 | 2.4 ± 0.024 | 2.58 ± 0.048
SAGMTSVEKRTLTFETEEEAEKEIKKIADELKKKGYKTEVKIEEVTKEKTEKGDSRYKVTATMKITKKESAG [r5_158_JUSTAS] | 0.681 ± 0.074 | 0.792 ± 0.14 | 0.76 ± 0.17
SAGMTTTLTKTEKFPDGTTVTYTTVTAPDGTPLTATATYDPNNPNKATTTTTDPATGTTTTTTTTITGGSAG [r5_345_JUSTAS] | 1.03 ± 0.065 | 0.674 ± 0.11 | 0.852 ± 0.12
SAGMTTVEVTRTFPADVPVTEEDLELAEKEREEIAAELPESYVVTLASVTYERRPDSWTVTATFTITAPSAG [r5_121_JUSTAS] | 1.47 ± 0.017 | 2.11 ± 0.06 | 1.85 ± 0.045
SAGMTVEELRNLPPGYRVLEVKFDPETGKYTVVVERPDEDGVPHKVTIEVDGLEELEEFFKTGLTELKLSAG [r5_905_TrMRF] | 1.73 ± 0.045 | 0.897 ± 0.1 | 1.35 ± 0.16
SAGMTVKTEVHTTTLPETGLVRTEETVTYPDGSVIRRTGDSNPETGEVTTTVTTPDGTLLATETTTITPSAG [r14_524_JUSTAS] | -0.585 ± 0.072 | 0.426 ± 0.033 | 0.184 ± 0.048
SAGMTVTLPGDKSYTVTVKYTLYDADGKKLGEKTYTKTVTVAPNSTVTINIPNTYPNTVVTEVTVTPESAGG [r19_295_JUSTAS] | 3.91 ± 0.35 | 4.38 ± 0.092 | 4.32 ± 0.13
SAGMTVTLTVSEAEFNALFGPDKDAEAIAAHLESQGYVIKSISTTSSTDPETGGRTLTITLDVEPPLVSAGG [r19_376_JUSTAS] | 3.29 ± 0.09 | 3.603 ± 0.036 | 3.54 ± 0.071
SAGMVAEEARRRASPEELAAEEAPPRPPPPVTVVTVPREVAPEVLAALAAAEDVEVEERGDELVIRVVGSAG [r14_7_JUSTAS] | -0.583 ± 0.39 | 0.559 ± 0.1 | 0.299 ± 0.19
SAGMVIAIKPGEPRILVSGLPPELVRRIAEELGAPDVVPVEPGVPAWTALENHPDPAAFLVIPPELALSAGG [r19_270_TrMRF] | -0.822 ± 0.7 | 0.393 ± 0.12 | 0.0501 ± 0.15
SAGMVIAKVTVKLPNGETKTFVIEAESPEELEEQIIKELEKEYGVSPEEFPIVEIKVEFYDPEKGGLLLSAG [r5_482_TrMRF] | 2.13 ± 0.089 | 2.23 ± 0.033 | 2.2 ± 0.11
SAGMVIKIKASEELRELLKKLGLSEEEVKKLKIKLKVNGKEVEVEVEVDKETGMIYVRFKDTGKTFKLPSAG [r5_545_TrROS_Hall] | 1.61 ± 0.042 | 1.32 ± 0.15 | 1.53 ± 0.13
SAGMVIRLTSPTGSLEITITVEPDGETREAVVKAASGEEVSVIPPSVSVEEIKKRFPDVTASEEPLDLPSAG [r5_314_JUSTAS] | 0.518 ± 0.037 | 0.653 ± 0.038 | 0.628 ± 0.071
SAGMVITETEELPDRTITTVKYSDGKVVIETLEYDPNSNVVTKTVTTIDLSNPSVSKTTTTVEPDPAPSAGG [r19_102_JUSTAS] | 1.15 ± 0.099 | 1.81 ± 0.063 | 1.62 ± 0.092
SAGMVITLERTIPPTVSVSPEEAVAAIKAELEATPGVTVTAVNSVTVTPLPDGTLRVTVDIVVDRPEPSAGG [r19_396_JUSTAS] | 2.23 ± 0.037 | 2.634 ± 0.024 | 2.53 ± 0.06
SAGMVIVIDKKKKKIYIFAPSKEMAEKIAKELNLKDVKVYEKGTSIEELLKKHPDVEKVIVLPAEELKSAGG [r19_270_TrROS_Hall] | 1.45 ± 0.049 | 2.87 ± 0.056 | 2.65 ± 0.27
SAGMVKIEIEVKVEKDEDGRLRVTVRITIYDEKTGEKLKEIEIEVEAPSEEEAERAARKKAEELLKELSAGG [r19_255_TrROS_Hall] | 3.9 ± 0.18 | 2.58 ± 0.087 | 3.25 ± 0.19
SAGMVKTEPDPNSDIVRRTFTVQVPVRIPPGEWRELTIEVPFDEVYGPGGVPVDPVSEEEIEAAIKALLSAG [r5_239_JUSTAS] | 0.966 ± 0.037 | 1.15 ± 0.087 | 1.07 ± 0.096
SAGMVRIELRPRPDGRPIALIDVGAPGGPPRRFEIEVDETETLDDIAERLRAEGFDLPEGIDLEELAGSAGG [r19_263_TrMRF] | 1.08 ± 0.018 | 2.243 ± 0.011 | 1.91 ± 0.044
SAGMVTISVTRPSSGTYVLNISNPLTGETETITLSTADPAAFKATAEAIAAELEAKGYPVKINLTPTAGSAG [r5_815_JUSTAS] | 3.6 ± 0.063 | 3.788 ± 0.014 | 3.73 ± 0.048
